Assay results as given in US20220396617A1 (BEIJING MABWORKS BIOTECH, published 2022).
Where two headings read alike, the source gives them in different places.

T1: human TIGIT expressed on HEK293A cells (human, UniProt Q495A1 22-244)
T1 construct: also called HEK293A/human TIGIT cells
T1 sequence: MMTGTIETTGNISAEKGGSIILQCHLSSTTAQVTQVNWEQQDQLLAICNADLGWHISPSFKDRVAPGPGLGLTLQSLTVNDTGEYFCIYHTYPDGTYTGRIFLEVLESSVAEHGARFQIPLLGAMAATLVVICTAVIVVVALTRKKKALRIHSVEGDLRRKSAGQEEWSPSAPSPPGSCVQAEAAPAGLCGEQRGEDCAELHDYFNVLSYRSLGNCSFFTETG

T2: TIGIT (ECD)-hFc (human, UniProt Q495A1 22-141)
T2 construct: bought protein; also called recombinant human TIGIT (ECD)-hFc; Cat #: 10917-H02H, Sino Biological; not shown: human Fc (hFc) of the bought protein
T2 sequence: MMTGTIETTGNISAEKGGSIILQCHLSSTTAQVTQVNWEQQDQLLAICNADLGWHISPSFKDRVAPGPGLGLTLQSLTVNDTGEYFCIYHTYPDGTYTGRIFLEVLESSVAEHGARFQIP

T3: human TIGIT (ECD)-his (human, UniProt Q495A1 22-141)
T3 construct: bought protein; also called hTIGIT(ECD)-his; Cat #: 10917-H08H, Sino Biological; not shown: his tag of the bought protein
T3 sequence: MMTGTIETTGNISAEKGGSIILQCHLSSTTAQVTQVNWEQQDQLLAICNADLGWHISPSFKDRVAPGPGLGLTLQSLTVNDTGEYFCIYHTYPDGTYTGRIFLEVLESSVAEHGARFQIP

B1: Tiragolumab (antibody, V domains shown)
VH: EVQLQQSGPGLVKPSQTLSLTCAISGDSVSSNSAAWNWIRQSPSRGLEWLGKTYYRFKWYSDYAVSVKGRITINPDTSKNQFSLQLNSVTPEDTAVFYCTRESTTYDLLAGPFDYWGQGTLVTVSS
VL: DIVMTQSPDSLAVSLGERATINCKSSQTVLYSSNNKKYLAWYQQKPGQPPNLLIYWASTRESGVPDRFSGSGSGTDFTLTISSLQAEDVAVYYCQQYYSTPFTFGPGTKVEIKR
B2: chimeric 149G11 (antibody, human IgG1, kappa, V domains shown)
VH: QVQLQQSGTELVRPGTSVKMSCRTAGYTFTNYWIHWVKQRPGHGLEWIGDIYPGGRYSNYNEKFRGKATLTADTSSSTAYMELSSLTSEDSAIYYCARYYESAMDFWGQGTSVTVSS
VL: DIVMSQSPSSLAVSVGEKVTVNCKSSQNLLYNSNQKSYLAWFQQKPGQSPKLLIYWASTRESGVPDRFTGSGSGTDFTLTISSVKAEDLAVYYCQQYYNYPFTFGSGTKLEIKR
notes: mouse variable regions with human IgG1/kappa constant regions; also called chimeric antibody 149G11
B3: chimeric 70E11 (antibody, human IgG1, kappa, V domains shown)
VH: QVQLQQPGTDLVKPGASVRMSCKASGYTFTSYNVHWVKQTPGQGLEWIGTIYPGNLATSYNQKFKGKATLTADKSSTTAYMQLSSLTSEDSAVYYCARSGTMDYWGQGTTLTVSS
VL: ENVVTQSPAIMSASPGEKVTMTCRASSSISSTYLHWYQQKSGASPKLWIYNTQNLASGVPARISGSGSGTSYSLTISSVEAEDAATYYCQQFGGYPLITFGAGTKLELKR
notes: mouse variable regions with human IgG1/kappa constant regions; also called chimeric antibody 70E11
B4: mouse 70E11 (antibody, V domains shown)
VH: QVQLQQPGTDLVKPGASVRMSCKASGYTFTSYNVHWVKQTPGQGLEWIGTIYPGNLATSYNQKFKGKATLTADKSSTTAYMQLSSLTSEDSAVYYCARSGTMDYWGQGTTLTVSS
VL: ENVVTQSPAIMSASPGEKVTMTCRASSSISSTYLHWYQQKSGASPKLWIYNTQNLASGVPARISGSGSGTSYSLTISSVEAEDAATYYCQQFGGYPLITFGAGTKLELK
notes: also called antibody from clone 70E11
B5: mouse 149G11 (antibody, V domains shown)
VH: QVQLQQSGTELVRPGTSVKMSCRTAGYTFTNYWIHWVKQRPGHGLEWIGDIYPGGRYSNYNEKFRGKATLTADTSSSTAYMELSSLTSEDSAIYYCARYYESAMDFWGQGTSVTVSS
VL: DIVMSQSPSSLAVSVGEKVTVNCKSSQNLLYNSNQKSYLAWFQQKPGQSPKLLIYWASTRESGVPDRFTGSGSGTDFTLTISSVKAEDLAVYYCQQYYNYPFTFGSGTKLEIK
notes: also called antibody from clone 149G11

Legend:
[1] = molecular target: T1, human TIGIT expressed on HEK293A cells; experiment: FACS on HEK293A/human TIGIT cells
Protocol: (§1) After incubated at 4° C. for 1 h, plates were washed 3 times with PBST. Then, APC coupled Goat Anti-Mouse IgG (Cat #: 405308, BioLegend, US) diluted 500x was added to the plates. After incubation at 4° C. for 1 h, the plates were washed with PBS for 3 times and then cell fluorescence was monitored using a FACS machine (BD).

[2] = molecular target: T4, monkey TIGIT expressed on HEK293A cells (monkey); experiment: FACS, HEK293A/monkey TIGIT cells, serially diluted antibody (protocol of Example 5) [B]
T4 construct: also called HEK293A/monkey TIGIT cells
Protocol: as §1

[3] = molecular target: T4, monkey TIGIT expressed on HEK293A cells; experiment: FACS on HEK293A/monkey TIGIT cells
Protocol: as §1

[4] = molecular target: T1, human TIGIT expressed on HEK293A cells; experiment: cell-based or functional assay
monkey TIGIT (ECD)-hFc [5] = molecular target: T5, monkey TIGIT (ECD)-hFc (monkey (cynomolgus)); experiment: ELISA, coated monkey TIGIT (ECD)-hFc (table head says FACS)
T5 construct: bought protein; also called cynoTIGIT(ECD)-hFc; cynomolgus TIGIT (ECD)-hFc; not shown: human Fc (hFc) of the bought protein

[6] = molecular target: T1, human TIGIT expressed on HEK293A cells; experiment: FACS, HEK293A/human TIGIT cells, serially diluted antibody (protocol of Example 5) [A]
Protocol: as §1

monkey TIGIT (ECD)-hFc [7] = molecular target: T5, monkey TIGIT (ECD)-hFc; experiment: SPR (BIAcore 8K), monkey TIGIT (ECD)-hFc on CM5 chip, antibody injected
TIGIT (ECD)-hFc [8] = molecular target: T2, TIGIT (ECD)-hFc; experiment: FACS blocking assay (protocol of Example 7): serially diluted antibody pre-incubated with TIGIT (ECD)-hFc, then binding of TIGIT (ECD)-hFc to A549/human PVR cells measured; blocked ligand: human PVR
Protocol: (§2) After incubated at 4° C. for 1 h, plates were washed 3 times with PBST and then added with PE coupled Goat Anti-human IgG (Cat #: PAI-86078, Thermofisher, US) diluted 500×. After incubation at 4° C. for 1 h, the plates were washed with PBST for 3 times and then cell fluorescence was monitored using a FACS machine (BD).

[9] = molecular target: T1, human TIGIT expressed on HEK293A cells; experiment: FACS, HEK293A/human TIGIT cells, serially diluted antibody (protocol of Example 5) [A]; remark: listed apart in the source
human TIGIT (ECD)-his = molecular target: T3, human TIGIT (ECD)-his; experiment: ELISA, coated human TIGIT (ECD)-his (table head says FACS)
Protocol: Plates were washed for 3 times with PBST (PBS+0.05% Tween20), added with Goat-anti-mouse IgG-HRP (Cat #: A9309-1 ml, Sigma, US) diluted 5000×, and incubated for 1 h at room temperature. Plates were incubated with freshly prepared Ultra-TMB (Cat #: 555214, BD, US) for 5 minutes at room temperature for color development.

TIGIT (ECD)-hFc [10] = molecular target: T2, TIGIT (ECD)-hFc; experiment: FACS blocking assay: antibody preincubated with TIGIT (ECD)-hFc, binding to A549/human PVR cells
Protocol: as §2

T4 sequence (chain, as listed by the source limits assumed): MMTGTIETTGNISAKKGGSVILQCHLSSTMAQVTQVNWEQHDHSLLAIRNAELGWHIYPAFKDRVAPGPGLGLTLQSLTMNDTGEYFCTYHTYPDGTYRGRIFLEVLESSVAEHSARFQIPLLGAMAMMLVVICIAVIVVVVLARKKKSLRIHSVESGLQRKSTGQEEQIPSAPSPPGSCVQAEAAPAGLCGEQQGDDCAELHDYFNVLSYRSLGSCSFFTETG

Row | Binder | EC50 [1] [nM] | EC50 (read off the curve) [2] [mg/L] | EC50 [3] [nM] | NK92-mediated ADCC against HEK293A/human TIGIT cells, EC50 [4] [nM] | EC50 (monkey TIGIT (ECD)-hFc [5]) [nM] | EC50 (read off the curve) [6] [mg/L] | Kd (monkey TIGIT (ECD)-hFc [7]) [nM] | IC50 (read off the curve) (TIGIT (ECD)-hFc [8]) [mg/L] | EC50 (read off the curve) [9] [mg/L] | EC50 (human TIGIT (ECD)-his) [nM] | EC50 (TIGIT (ECD)-hFc [10]) [nM]
1 | B1 | 0.44 | ~0.2 | 0.9 | 0.0465 | 0.14 | ~0.2 | 0.0622 | – | – | – | –
2 | B2 | – | ~0.5 | – | – | – | ~0.2 | – | ~3 | ~0.2 | – | –
3 | B3 | – | ~0.2 | – | – | – | ~0.2 | – | ~3 | – | – | –
4 | B4 | 0.56 | – | 0.39 | – | – | – | – | – | – | 0.82 | 43
5 | B5 | 0.1 | – | 1.2 | – | – | – | – | – | – | 0.86 | 41
